Measured values taken from article PMC11985657.
pKd: −log10 of the molar value.

Target: Fc-FGF21 from E. coli (UniProt Q9NSA1)
Test: BLI

With “Human KLB (from UniProt Q86Z14 1-996) (receptor)” the pKd was 8.00.
